Data as given in article PMC10202830, “Cingulin and paracingulin tether myosins-2 to junctions to mechanoregulate the plasma membrane” (The Journal of Cell Biology, 2023).
Like-named read-outs stand apart in the source and are kept apart here. Values belong to the molecule of their own block, whether it stands above or below them.

Assays:
[1] = molecular target: His-tagged hCGN Rod2 (667–1203), purified (human) (UniProt Q9P2M7); test: MST; labelled target His-tagged hCGN Rod2 (red tris-NTA dye, 200 nM); ligands hNM2A rod or hNM2B rod 0–10,000 nM; PBS with 0.05% Tween 20; Monolith NT.115 fit; n = 7
His-tagged hCGN Rod2 (667–1203), purified (human), sequence (Q9P2M7 667-1203): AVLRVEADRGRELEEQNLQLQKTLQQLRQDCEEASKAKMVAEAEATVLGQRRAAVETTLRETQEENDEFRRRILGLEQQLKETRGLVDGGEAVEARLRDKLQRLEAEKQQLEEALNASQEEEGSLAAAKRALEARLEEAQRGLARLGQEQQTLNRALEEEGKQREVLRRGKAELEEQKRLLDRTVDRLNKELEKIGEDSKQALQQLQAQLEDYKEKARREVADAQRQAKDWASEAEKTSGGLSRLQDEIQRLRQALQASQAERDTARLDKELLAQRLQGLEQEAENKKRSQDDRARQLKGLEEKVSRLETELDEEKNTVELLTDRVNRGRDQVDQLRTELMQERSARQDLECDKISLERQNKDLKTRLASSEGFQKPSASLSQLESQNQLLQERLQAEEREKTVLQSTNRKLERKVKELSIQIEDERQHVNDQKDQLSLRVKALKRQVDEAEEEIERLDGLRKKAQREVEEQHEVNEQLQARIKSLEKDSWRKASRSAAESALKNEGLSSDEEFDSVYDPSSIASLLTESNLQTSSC

[2] = molecular target: T1, His-tagged mZU5 (1520–1745) (mouse, UniProt P39447 1520-1745); test: MST; labelled target His-tagged mZU5 (1520–1745; red tris-NTA dye, 50 nM); GST-mCGN (1–112) or GST-mCGNL1 (1–122) 0–1,000 nM in PBS-T; Monolith NT.115 fit; n = 5
T1 construct: mouse ZO-1, residues 1520-1745 (ZU5-containing region); Labelled with the red tris-NTA dye through its His tag in the MST; also called ZU5-containing region of mZO-1 (residues 1520–1745); ZU5-containing fragment
T1 sequence (looked up): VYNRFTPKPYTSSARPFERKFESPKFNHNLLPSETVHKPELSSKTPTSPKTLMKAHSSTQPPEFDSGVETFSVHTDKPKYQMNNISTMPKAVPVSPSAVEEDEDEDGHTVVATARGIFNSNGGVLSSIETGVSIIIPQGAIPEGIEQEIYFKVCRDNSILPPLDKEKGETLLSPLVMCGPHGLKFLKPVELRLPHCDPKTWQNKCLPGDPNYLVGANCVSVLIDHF

CGN = molecular target: T2, CGN (Mus musculus (Mouse), UniProt P59242); test: MST, GST-fusion ligands (GST dimer)
T2 chain: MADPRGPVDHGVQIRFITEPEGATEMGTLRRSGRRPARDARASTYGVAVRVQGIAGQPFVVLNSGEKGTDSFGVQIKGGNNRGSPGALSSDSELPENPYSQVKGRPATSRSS

CGNL1 = molecular target: T3, CGNL1 (Mus musculus (Mouse), UniProt Q6AW69); test: MST, GST-fusion ligands (GST dimer)
T3 chain: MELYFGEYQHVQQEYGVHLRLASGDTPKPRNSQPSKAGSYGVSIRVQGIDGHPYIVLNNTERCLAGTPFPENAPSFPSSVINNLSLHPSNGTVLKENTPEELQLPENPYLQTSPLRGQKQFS

[3] = molecular target: T4, full-length hCGNL1 (10xHis-2xStrep), purified (human, UniProt Q0VF96 1-1302); test: pull-down; affinity purified GST-tagged cNM2A, cNM2B, cNM2C rod fragments as baits; His-tagged full-length CGN and CGNL1 purified from baculovirus-infected insect cells as preys; IB with anti-His (Fig. 1 H–J); settings: both partners purified
T4 construct: human paracingulin (CGNL1), 1–1,302aa, in pACEBac1; the plasmid list prints this construct as 'hCGN-FL-10xHis-2xStrep (1–1,302aa; S2518)'; also called His-tagged full-length CGNL1; purified CGNL1; source: baculovirus-infected insect cells, purified (StrepTag resin)
T4 sequence (looked up): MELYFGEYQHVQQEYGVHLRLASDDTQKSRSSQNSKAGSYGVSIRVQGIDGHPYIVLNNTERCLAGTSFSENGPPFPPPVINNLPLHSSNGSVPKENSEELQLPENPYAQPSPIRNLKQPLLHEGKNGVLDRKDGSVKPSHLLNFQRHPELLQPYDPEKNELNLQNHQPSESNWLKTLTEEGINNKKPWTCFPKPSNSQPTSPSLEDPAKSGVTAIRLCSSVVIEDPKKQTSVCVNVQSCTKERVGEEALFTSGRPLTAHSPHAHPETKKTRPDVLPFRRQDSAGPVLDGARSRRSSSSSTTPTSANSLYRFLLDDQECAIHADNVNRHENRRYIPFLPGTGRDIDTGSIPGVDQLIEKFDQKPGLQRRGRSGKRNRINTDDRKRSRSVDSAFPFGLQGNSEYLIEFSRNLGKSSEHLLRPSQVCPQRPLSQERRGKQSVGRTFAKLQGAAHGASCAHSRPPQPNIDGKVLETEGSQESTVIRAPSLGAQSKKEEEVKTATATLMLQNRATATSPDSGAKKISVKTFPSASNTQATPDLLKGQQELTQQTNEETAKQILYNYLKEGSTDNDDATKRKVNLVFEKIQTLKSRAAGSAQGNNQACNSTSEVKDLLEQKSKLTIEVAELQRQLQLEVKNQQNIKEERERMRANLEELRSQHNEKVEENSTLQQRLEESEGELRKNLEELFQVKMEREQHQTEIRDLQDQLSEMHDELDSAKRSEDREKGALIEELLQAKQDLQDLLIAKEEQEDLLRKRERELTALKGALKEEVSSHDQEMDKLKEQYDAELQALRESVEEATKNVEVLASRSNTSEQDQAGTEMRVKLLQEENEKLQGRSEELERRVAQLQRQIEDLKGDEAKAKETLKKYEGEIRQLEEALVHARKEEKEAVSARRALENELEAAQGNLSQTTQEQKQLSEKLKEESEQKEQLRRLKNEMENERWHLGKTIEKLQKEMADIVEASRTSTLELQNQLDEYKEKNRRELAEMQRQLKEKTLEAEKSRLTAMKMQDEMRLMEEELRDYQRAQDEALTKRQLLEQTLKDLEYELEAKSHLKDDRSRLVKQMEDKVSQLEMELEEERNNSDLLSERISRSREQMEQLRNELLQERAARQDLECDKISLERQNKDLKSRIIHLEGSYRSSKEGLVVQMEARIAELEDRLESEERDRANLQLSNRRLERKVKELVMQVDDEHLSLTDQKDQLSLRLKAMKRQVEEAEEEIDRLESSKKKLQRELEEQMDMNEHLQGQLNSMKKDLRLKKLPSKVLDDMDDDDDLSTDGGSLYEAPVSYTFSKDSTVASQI

Kd [1]: 3620 nM
Molecule: hNM2A rod (1330–1960), purified (from UniProt P35579 1330-1960) (domain or fragment)

Kd [1]: 346 nM
Molecule: hNM2B rod (1337–1976), purified (from UniProt P35580 1337-1976) (domain or fragment)

Kd [2]: 7.7 nM
Molecule: GST-mCGN (1–112) (from UniProt P59242 1-112) (domain or fragment)

Kd (CGN): 7.7 nM
Kd (CGNL1): 79.8 nM
B1: ZO1 (protein)
chain: EDEDEDGHTVVATARGIFNSNGGVLSSIETGVSIIIPQGAIPEGIEQEIYFKVCRDNSILPPLDKEKGETLLSPLVMCGPHGLKFLKPVELRLPHCDPKTWQNKCLPGDPNYLVGANCVSVLIDHF

binding result [3]: binds
B2: GST-cNM2A (1711–1960) (domain or fragment, canis (dog), UniProt Q258K2 1711-1960, looked up)
chain: ANSSGKGALALEEKRRLEARIAQLEEELEEEQGNTELVNDRLKKANLQIDQINTDLNLERSHAQKNENARQQLERQNKELKVKLQEMEGTVKSKYKASITALEAKIAQLEEQLDNETKERQAACKQVRRAEKKLKDVLLQVDDERRNAEQFKDQADKASTRLKQLKRQLEEAEEEAQRANASRRKLQRELEDATETADAMNREVSSLKNKLRRGDLPFVVPRRVARKGAGDCSDEEVDGKADGAEAKAAE
notes: canis nonmuscle myosin-2A heavy chain, rod and tail fragment 1711-1960; also called last 250 residues of NM2A; not shown: GST, N-terminal, kept

binding result [3]: binds
B3: GST-cNM2A (1461–1960) (domain or fragment, canis (dog), UniProt Q258K2 1461-1960, looked up)
chain: AEERDRAEAEAREKETKALSLARALEEAMEQKAELERLNKQFRTEMEDLMSSKDDVGKSVHELEKSKRALEQQVEEMKTQLEELEDELQATEDAKLRLEVNLQAMKAQFERDLQGRDEQSEEKKKQLVRQVREMEAELEDEKKQRSMAVAARKKLEMDLKDLEAHIDSANKNRDEAIKQLRKLQAQMKDCVRELDDTRASREEILAQAKENEKKMKSMEAEMIQLQEELAAAERAKRQAQQERDELADEIANSSGKGALALEEKRRLEARIAQLEEELEEEQGNTELVNDRLKKANLQIDQINTDLNLERSHAQKNENARQQLERQNKELKVKLQEMEGTVKSKYKASITALEAKIAQLEEQLDNETKERQAACKQVRRAEKKLKDVLLQVDDERRNAEQFKDQADKASTRLKQLKRQLEEAEEEAQRANASRRKLQRELEDATETADAMNREVSSLKNKLRRGDLPFVVPRRVARKGAGDCSDEEVDGKADGAEAKAAE
notes: canis nonmuscle myosin-2A heavy chain, rod fragment 1461-1960; also called NM2A rod bait, last ≈500 residues; not shown: GST, N-terminal, kept

Kd ([2]; both partners purified): 79.8 nM
B4: GST-mCGNL1 (1–122) (domain or fragment)
chain: MELYFGEYQHVQQEYGVHLRLASGDTPKPRNSQPSKAGSYGVSIRVQGIDGHPYIVLNNTERCLAGTPFPENAPSFPSSVINNLSLHPSNGTVLKENTPEELQLPENPYLQTSPLRGQKQFS
